According to US20230407373A1 (priority 2020, published 2023):
Like-named read-outs stand apart in the source and are kept apart here.

Columns and labels:
[1] = test system: HCoV-OC43 gRNA and sgRNA; type: binding; conditions: for target (unweighted spectral count, OC43 Probe II capture): FDR<10%; for target (unweighted spectral count, OC43 Probe II) / background (unweighted spectral count, no-probe control): type n_48_v, 48 hpi; for target (unweighted spectral count, OC43 Probe II): OC43 Probe II capture on infected cells; for background (unweighted spectral count, no-probe control): no-probe control on infected cells
[2] = test system: gRNA of HCoV-OC43; type: binding; conditions: for target (spectral count, OC43 Probe I RNP capture) / background (spectral count, no-probe control): type n_48_v: 48 hours post-infection; for target (spectral count, OC43 Probe I RNP capture): infected cells, unweighted spectral count; for background (spectral count, no-probe control): no-probe control on infected cells; for target (spectral count) / background (spectral count): type g_36_m, 36 hpi, Probe I; for target (spectral count): HCoV-OC43-infected HCT-8 cells; for background (spectral count): uninfected-probe control
[3] = 36 hpi, type n_36_v, tested against no-probe control

B1: EIF2AK2 (protein, UniProt P19525 2-551, looked up)
Interferon-induced, …: AGDLSAGFFMEELNTYRQKQGVVLKYQELPNSGPPHDRRFTFQVIIDGREFPEGEGRSKKEAKNAAAKLAVEILNKEKKAVSPLLLTTTNSSEGLSMGNYIGLINRIAQKKRLTVNYEQCASGVHGPEGFHYKCKMGQKEYSIGTGSTKQEAKQLAAKLAYLQILSEETSVKSDYLSSGSFATTCESQSNSLVTSTLASESSSEGDFSADTSEINSNSDSLNSSSLLMNGLRNNQRKAKRSLAPRFDLPDMKETKYTVDKRFGMDFKEIELIGSGGFGQVFKAKHRIDGKTYVIKRVKYNNEKAEREVKALAKLDHVNIVHYNGCWDGFDYDPETSDDSLESSDYDPENSKNSSRSKTKCLFIQMEFCDKGTLEQWIEKRRGEKLDKVLALELFEQITKGVDYIHSKKLIHRDLKPSNIFLVDTKQVKIGDFGLVTSLKNDGKRTRSKGTLRYMSPEQISSQDYGKEVDLYALGLILAELLHVCDTAFETSKFFTDLRDGIISDIFDKKEKTLLQKLLSKKPEDRPNTSEILRTLTVWKKSPEKNERHTC
target (unweighted spectral count, OC43 Probe II capture) [1, 3]: 4 | target (unweighted spectral count, OC43 Probe II) [1]: 8 | background (unweighted spectral count, no-probe control) [1]: 1 | target (spectral count, OC43 Probe I RNP capture) [2]: 8 | background (spectral count, no-probe control) [2]: 1

B2: TXN (protein, UniProt P10599 2-105, looked up)
Thioredoxin: VKQIESKTAFQEALDAAGDKLVVVDFSATWCGPCKMIKPFFHSLSEKYSNVIFLEVDVDDCQDVASECEVKCMPTFQFFKKGQKVGEFSGANKEKLEATINELV
target (unweighted spectral count, OC43 Probe II capture) [1, 3]: 6 | target (spectral count, OC43 Probe I RNP capture) [2]: 8 | background (spectral count, no-probe control) [2]: 1

B3: SRSF10 (protein, UniProt O75494 1-262, looked up)
Serine/arginine-rich splicing …: MSRYLRPPNTSLFVRNVADDTRSEDLRREFGRYGPIVDVYVPLDFYTRRPRGFAYVQFEDVRDAEDALHNLDRKWICGRQIEIQFAQGDRKTPNQMKAKEGRNVYSSSRYDDYDRYRRSRSRSYERRRSRSRSFDYNYRRSYSPRNSRPTGRPRRSRSHSDNDRFKHRNRSFSRSKSNSRSRSKSQPKKEMKAKSRSRSASHTKTRGTSKTDSKTHYKSGSRYEKESRKKEPPRSKSQSRSQSRSRSKSRSRSWTSPKSSGH
target (unweighted spectral count, OC43 Probe II capture) [1, 3]: 6 | target (unweighted spectral count) ([1]; OC43 Probe II, 24 hpi (type n_24_v), infected cells, tested against no-probe control): 6 | target (unweighted spectral count, OC43 Probe II) [1]: 9 | background (unweighted spectral count, no-probe control) [1]: 1 | target (spectral count, OC43 Probe I RNP capture) [2]: 9 | background (spectral count, no-probe control) [2]: 1

B4: XRN2: host protein, UniProt Q9H0D6 (protein, UniProt Q9H0D6 1-950, looked up)
5'-3' exoribonuclease 2: MGVPAFFRWLSRKYPSIIVNCVEEKPKECNGVKIPVDASKPNPNDVEFDNLYLDMNGIIHPCTHPEDKPAPKNEDEMMVAIFEYIDRLFSIVRPRRLLYMAIDGVAPRAKMNQQRSRRFRASKEGMEAAVEKQRVREEILAKGGFLPPEEIKERFDSNCITPGTEFMDNLAKCLRYYIADRLNNDPGWKNLTVILSDASAPGEGEHKIMDYIRRQRAQPNHDPNTHHCLCGADADLIMLGLATHEPNFTIIREEFKPNKPKPCGLCNQFGHEVKDCEGLPREKKGKHDELADSLPCAEGEFIFLRLNVLREYLERELTMASLPFTFDVERSIDDWVFMCFFVGNDFLPHLPSLEIRENAIDRLVNIYKNVVHKTGGYLTESGYVNLQRVQMIMLAVGEVEDSIFKKRKDDEDSFRRRQKEKRKRMKRDQPAFTPSGILTPHALGSRNSPGSQVASNPRQAAYEMRMQNNSSPSISPNTSFTSDGSPSPLGGIKRKAEDSDSEPEPEDNVRLWEAGWKQRYYKNKFDVDAADEKFRRKVVQSYVEGLCWVLRYYYQGCASWKWYYPFHYAPFASDFEGIADMPSDFEKGTKPFKPLEQLMGVFPAASGNFLPPSWRKLMSDPDSSIIDFYPEDFAIDLNGKKYAWQGVALLPFVDERRLRAALEEVYPDLTPEETRRNSLGGDVLFVGKHHPLHDFILELYQTGSTEPVEVPPELCHGIQGKFSLDEEAILPDQIVCSPVPMLRDLTQNTVVSINFKDPQFAEDYIFKAVMLPGARKPAAVLKPSDWEKSSNGRQWKPQLGFNRDRRPVHLDQAAFRTLGHVMPRGSGTGIYSNAAPPPVTYQGNLYRPLLRGQAQIPKLMSNMRPQDSWRGPPPLFQQQRFDRGVGAEPLLPWNRMLQTQNAAFQPNQYQMLAGPGGYPPRRDDRGGRQGYPREGRKYPLPPPSGRYNWN
target (unweighted spectral count, OC43 Probe II) [1]: 10 | background (unweighted spectral count, no-probe control) [1]: 1 | target (spectral count) [2]: 8 | background (spectral count) [2]: 1 | target (spectral count, OC43 Probe I RNP capture) [2]: 9 | background (spectral count, no-probe control) [2]: 1

B5: LRRC59 (protein, UniProt Q96AG4 1-307, looked up)
Leucine-rich …: MTKAGSKGGNLRDKLDGNELDLSLSDLNEVPVKELAALPKATILDLSCNKLTTLPSDFCGLTHLVKLDLSKNKLQQLPADFGRLVNLQHLDLLNNKLVTLPVSFAQLKNLKWLDLKDNPLDPVLAKVAGDCLDEKQCKQCANKVLQHMKAVQADQERERQRRLEVEREAEKKREAKQRAKEAQERELRKREKAEEKERRRKEYDALKAAKREQEKKPKKEANQAPKSKSGSRPRKPPPRKHTRSWAVLKLLLLLLLFGVAGGLVACRVTELQQQPLCTSVNTIYDNAVQGLRRHEILQWVLQTDSQQ
target (unweighted spectral count, OC43 Probe II capture) [1, 3]: 6 | target (unweighted spectral count, OC43 Probe II) [1]: 5 | background (unweighted spectral count, no-probe control) [1]: 1 | target (spectral count, OC43 Probe I RNP capture) [2]: 9 | background (spectral count, no-probe control) [2]: 1

B6: HNRNPH2: host protein, UniProt P55795 (protein, UniProt P55795 1-449, looked up)
Heterogeneous nuclear …: MMLSTEGREGFVVKVRGLPWSCSADEVMRFFSDCKIQNGTSGIRFIYTREGRPSGEAFVELESEEEVKLALKKDRETMGHRYVEVFKSNSVEMDWVLKHTGPNSPDTANDGFVRLRGLPFGCSKEEIVQFFSGLEIVPNGMTLPVDFQGRSTGEAFVQFASQEIAEKALKKHKERIGHRYIEIFKSSRAEVRTHYDPPRKLMAMQRPGPYDRPGAGRGYNSIGRGAGFERMRRGAYGGGYGGYDDYGGYNDGYGFGSDRFGRDLNYCFSGMSDHRYGDGGSSFQSTTGHCVHMRGLPYRATENDIYNFFSPLNPMRVHIEIGPDGRVTGEADVEFATHEDAVAAMAKDKANMQHRYVELFLNSTAGTSGGAYDHSYVELFLNSTAGASGGAYGSQMMGGMGLSNQSSYGGPASQQLSGGYGGGYGGQSSMSGYDQVLQENSSDYQSNLA
target (unweighted spectral count, OC43 Probe II capture) ([1]; 24 hpi, type n_24_v, tested against no-probe control): 4 | target (unweighted spectral count, OC43 Probe II capture) [1, 3]: 8 | target (unweighted spectral count, OC43 Probe II) [1]: 10 | background (unweighted spectral count, no-probe control) [1]: 1 | target (spectral count) ([1]; type s_36_m, HCoV-OC43-infected HCT-8 cells, 36 hpi, Probe II): 8 | background (spectral count) ([1]; type s_36_m, uninfected-probe control, 36 hpi, Probe II): 1 | target (spectral count) [2]: 12 | background (spectral count) [2]: 1 | target (spectral count, OC43 Probe I RNP capture) [2]: 10 | background (spectral count, no-probe control) [2]: 1
